Tests used:
HLA-A*02:01 = experiment: IEDB peptide-MHC binding, purified MHC/competitive/radioactivity; ≥ and ≤ were set here for values at or beyond the usual limits of such assays; conditions: source organism: Lassa virus Josiah
HLA-A*02:03 = experiment: as above
HLA-A*02:06 = experiment: as above
HLA-A*02:02 = experiment: as above
HLA-A*68:02 = experiment: IEDB peptide-MHC binding, purified MHC/competitive/radioactivity; filed as Kd, often an IC50 or EC50 that approximates it; ≥ and ≤ were set here for values at or beyond the usual limits of such assays
[1] = source organism: Lassa virus GA391
[2] = source organism: Lassa virus Josiah

Sequence LIALSVLAV has an IC50 (HLA-A*02:01) of 102 nM.
With YLISIFLHL the IC50 (HLA-A*02:03; [1]) was 11 nM, the IC50 (HLA-A*02:06; [1]) was 10 nM and the IC50 (HLA-A*02:02; [1]) was 173 nM. It also gave an IC50 (HLA-A*02:01) of 14 nM and a Kd (HLA-A*68:02; [1]) of 6.66 µM.
GLYKQPGVPV gave an IC50 (HLA-A*02:01) of 89 nM.
IISTFHLSI gave an IC50 (HLA-A*02:01) of 330 nM.
In the case of ILAADLEKL, the IC50 (HLA-A*02:01) is reported as 92 nM.
For VLIALSVLAV, the IC50 (HLA-A*02:01) was 485 nM.
With GLYNFATCGL the IC50 (HLA-A*02:01) was 31 nM.
Sequence LMSIISTFHL has an IC50 (HLA-A*02:01) of 113 nM.
In the case of SLYKGVYEL, the IC50 (HLA-A*02:03; [2]) is reported as 12 nM, the IC50 (HLA-A*02:06; [2]) is reported as 395 nM and the IC50 (HLA-A*02:02; [2]) is reported as 115 nM. For the same sequence, the IC50 (HLA-A*02:01) was 47 nM and the Kd (HLA-A*68:02; [2]) was at least 10 µM.
